From the supplement of paper PMC10126150
± gives the standard deviation of the averaged measurements.

System: ATP
Test: switch fluorescence ratio, 500 uM ATP over buffer (Cy3 cluster intensity, sum of 5 cycles each) (fold (ratio)); higher = stronger signal-on switching upon ATP binding; sequences stand for … in TCGTCGGCAGCGTCAGATGTGTATAAGAGACAGTTTTTTTTTTTTTTTTTTTTTTTTT…TC
Conditions: aptamer strand: ATP DNA aptamer (quencher-CACCTGGGGGAGTATTGCGGAGGAAGG + anchor), 100 nM annealed; ATP concentration: 500 uM
How it was run: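 After annealing to 100 nM quencher-labelled ATP aptamer, Cy3-labelled switching-strand clusters on a modified Illumina MiSeq flow-cell were imaged in selection buffer. A second image followed after 15 min with 500 uM ATP at 22 °C, and five such buffer/ATP cycles were done, each separated by NaOH stripping and re-annealing. The fluorescence ratio, averaged per switch-domain sequence, is summed target-cycle over summed buffer-cycle Cy3 intensity per cluster, with clusters outside 100-1000 RFU excluded.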
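Further: ATP exposure 15 min at 22 °C before imaging.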

Sequence	switch fluorescence ratio
GGTACAAGG	1.01 ± 0.029
AGCAAACGGG	1.26 ± 0.015
TAATCTCCGG	1.04 ± 0.04
CGATATATGA	1.02 ± 0.019
TCACACGGGG	1.03 ± 0.061
AATGCTTGGG	1.0044 ± 8.7e-05
TCAGGGACGG	0.982 ± 0.025
GAGTGCAGGT	1.01 ± 0.015
GCTATATTTT	0.982 ± 0.017
GAAAGGGGGA	1.02 ± 0.025
TGGGCTTTGG	0.9992 ± 0.009
GGACGATCGG	0.9765 ± 0.0046
TGACCGCGGA	1.11 ± 0.039
TACGGGGCCA	0.992 ± 0.01
AGGCCGAGGA	0.991 ± 0.018
AAAAAAGAGA	0.977 ± 0.046
CGGGGGTTAG	0.999 ± 0.033
TATAAGGGTT	1.01 ± 0.017
CTTTAATTTT	1.01 ± 0.055
CGCGGTTTGT	0.988 ± 0.017
CTTAAATTGT	1.01 ± 0.011
GAAAAAAAAG	1.07 ± 0.1
GTCCGGATGG	1.02 ± 0.011

Sequence	switch fluorescence ratio
TCCAGGGTAC	1.23 ± 0.18
TTTCGTGGTG	0.997 ± 0.031
AGCCAGCTGC	0.9924 ± 0.0095
GTACTTCTGT	0.96 ± 0.014
TTGGTTGAAC	0.946 ± 0.032
GCATGGGTGG	1 ± 0.023
GAAAAAGGAC	1.27 ± 0.32
TCTTCGGTTG	0.9805 ± 0.0096
GGGTGGGGAA	0.963 ± 0.075
AAGTTGGGAG	1 ± 0.019
TGGTATTTTG	0.977 ± 0.024
TACGGGTCGA	1.01 ± 0.016
AGGGGTTAGT	0.999 ± 0.036
ATACACAATT	1.08 ± 0.054
ACCGGTTACA	1.03 ± 0.042
TTTCGCTATG	1.04 ± 0.024
GATTGCCGAT	1 ± 0.034
AGTAATCGCT	0.985 ± 0.01
TTCAGATACC	1.04 ± 0.017
TAAAACGCGG	1.07 ± 0.048
TGATGAGATT	0.999 ± 0.02
TGGGTAGTGC	0.997 ± 0.029
CGAAAAGGTG	1.05 ± 0.054

Sequence	switch fluorescence ratio
TAATCGGCTG	0.991 ± 0.069
AATTAGATTT	1.021 ± 0.0055
GTTAGAGATA	0.992 ± 0.015
GGAGAGTGCT	0.985 ± 0.015
TGGGGACTGG	1.04 ± 0.088
GAGTGTGCGT	0.975 ± 0.036
GGATGCTAGA	0.996 ± 0.024
TTTGGACGCT	1.04 ± 0.038
AGTTCGGGGA	0.992 ± 0.014
ATCCATATT	1.03 ± 0.029
GATACCGGTG	1.17 ± 0.25
ATAAAAACCG	1.01 ± 0.053
GGCTCCAGCT	0.978 ± 0.028
ATGAATTCTG	1.059 ± 0.0049
GGGGGCGGCT	1.03 ± 0.056
TGCGAACCTT	1.71 ± 0.12
CTTCATGGGT	0.962 ± 0.013
GCATTGTGTT	0.991 ± 0.052
CCAACTGGGA	1.05 ± 0.012
GGGATTGCGG	1.12 ± 0.23
GTCGTTCGCA	1.15 ± 0.11
TGGAGATTAG	1.01 ± 0.054
TAAAAAGATT	0.988 ± 0.019

Sequence	switch fluorescence ratio
AATCTGAAGA	0.9983 ± 0.0097
AAGTTCACGT	0.996 ± 0.02
TAACTAGCGA	1.027 ± 0.0041
CACATTAACT	1.094 ± 0.0047
GCTGTGTCCA	0.993 ± 0.01
AGAGGGATAG	1.19 ± 0.37
TCTAAGTTA	0.998 ± 0.012
TTTGGCTTTA	0.977 ± 0.017
TTGGAGGTTT	1.17 ± 0.24
TGGGGTATCT	1 ± 0.019
TGATTGGGTT	0.975 ± 0.022
GTATGCGCAA	2.74 ± 0.06
GTAGGGGTCA	0.976 ± 0.054
AATCCGCGGA	0.964 ± 0.013
CACGCGGGGA	1.01 ± 0.041
AAATTTTTC	1 ± 0.021
GAAGGGGCTG	1.01 ± 0.14
GGAATCCTTT	0.998 ± 0.0088
TCAAAATATA	0.987 ± 0.061
CGCTATGGGG	1.02 ± 0.059
GGTTCAGGGG	2.26 ± 1.8
AATTGGGCGA	0.989 ± 0.026
GAAGGAGGGA	0.987 ± 0.018

Sequence	switch fluorescence ratio
GGGGGTTTTG	0.993 ± 0.038
GGGATCGTTT	0.982 ± 0.046
TAATTTACCT	1.275 ± 0.0075
GGTAGGTTGC	1.03 ± 0.013
GTTTGAGGAG	0.986 ± 0.05
GCAAAAATGG	1.02 ± 0.038
GATAATAGGC	1 ± 0.06
TTGCAATTTT	1.36 ± 0.46
GCTGTTTACT	1 ± 0.012
AGTGATTGCA	1.007 ± 0.004
CGTTTTTACT	0.99 ± 0.052
CATCTGATTA	0.98832 ± 0.00039
TACGGGTTAG	1.031 ± 0.0034
TTACGCATTT	1.12 ± 0.08
TAGCTTGTGG	0.9912 ± 0.0062
GGATCTGGTG	1.022 ± 0.0079
ATTGTGGGCT	0.967 ± 0.063
AGGGACGCGA	1.26 ± 0.037
GAAATTGAGT	1 ± 0.027
AGCAATCGTT	1.54 ± 0.071
TCAGAGGCGG	1 ± 0.011
GATAATTATG	0.98 ± 0.019
TTTGGACCGA	1.03 ± 0.016

Sequence	switch fluorescence ratio
TGGTGTTTGC	1 ± 0.038
TTGGCTTAAA	1.007 ± 0.0097
TCGGGGATCT	1.033 ± 0.0073
TGGGGACAGC	0.949 ± 0.027
TTACCTGAAC	2.02 ± 0.31
AATGAGGGCG	0.9825 ± 0.0018
GTAAGGGGCA	1.07 ± 0.047
GCGGGGTAGT	1.008 ± 0.0044
CATGTGGCGG	0.995 ± 0.0016
GCGAATCGGT	1.01 ± 0.022
GGCGTTTGGG	0.991 ± 0.033
GTATTGAAGT	0.98469 ± 0.00015
CTAGTGAGTG	0.984 ± 0.036
CGCGCGATTA	1.02 ± 0.036
TCTTTGGAAC	0.997 ± 0.034
ATAATTGGGA	0.99 ± 0.041
CGACATATCC	1.12 ± 0.027
GCGGGATGGC	1.007 ± 0.0087
ACCAAAGGCG	1.04 ± 0.043
AAGTTAATGG	1.015 ± 0.0071
TCGGGGTTCG	0.992 ± 0.03
CGTGCACATT	0.983 ± 0.012
ATTACATTTT	1.03 ± 0.031

Sequence	switch fluorescence ratio
GTTAACGACG	1.017 ± 0.0068
GGCGTGCCGA	1.011 ± 0.0053
TTAAGAGGC	1.01 ± 0.2
TTCAAGACGG	0.995 ± 0.023
ACGGGTGTAG	0.989 ± 0.052
GCTTAGTGGG	0.954 ± 0.013
TTATGTGATA	0.95571 ± 0.00088
CGTACGTTCT	1.026 ± 0.0096
CGTTTCTGGG	1.007 ± 0.0015
GTGTGTTTTT	0.975 ± 0.053
AGGGTAATCA	0.993 ± 0.03
GTTTGTGGGC	1.01 ± 0.077
TAAGGAATGA	0.993 ± 0.019
TTATTTTCGT	0.973 ± 0.018
AAAGAGGTAG	0.9983 ± 0.0024
AGACTCGGGT	1.02 ± 0.0013
GGTGATACGG	1.012 ± 0.0022
ATTTCTAGGG	1.027 ± 0.0041
ATGAGAAGTG	0.969 ± 0.014
